From patent US20230380451A1, “MEANS AND METHODS TO DETOXIFY MYCOTOXINS” (priority 2020, published 2023)
Like-named read-outs stand apart in the source and are kept apart here.

Legend:
[1] = type: biochemical; settings: for temperature of maximum DON degradation activity (temperature optimum): 14.9° C. to 55.7° C. tested; for pH of maximum DON degradation activity (pH optimum): pH 2 to pH 10 tested, 30° C.
Procedure: (§1) To determine the transformation of DON to epi-THS by Akr I-III, described herein, the following assay was performed. An assay buffer was prepared containing 40 ppm DON, 1 mM NADPH in Teorell Stenhagen (TS) buffer, pH 6.0 (Östling and Virtama, Acta Physiologica Scandinavica, 1946, 11:4, 289-293). Tubes containing the assay buffer were transferred in a heating block at 30° C. The reaction was started by addition of Akr I-III to a final concentration of 200 nM in a final reaction volume of 200 μL. Samples were taken before reaction start, and 2, 5, 10, 15 and 20 min after reaction start. DON transformation reactions in these samples were stopped by mixing with absolute methanol at a 1:2 ratio, followed by a 1:100 dilution with 40% methanol. The concentrations of DON and epi-THS in the samples were determined with liquid chromatography-mass spectrometry (LC-MS) on a Sciex 5500 triple quadrupole mass spectrometer coupled to Agilent 1290 series UHPLC system, using the following MS parameters: Acquisition duration: 4 min; Scan Type: MRM (MRM); Polarity: Negative; Ion Source: Turbo Spray.
For LC, eluent A was 5% methanol, 94.9% water (ultrapure), 0.1% acetic acid, and eluent B was 99.9% methanol, 0.1% acetic acid, using a Phenomenex Kinetex 2.6 μm biphenyl 150×2.1 mm column, an injection volume of 1 μL and the protocol shown in Table 3.
By applying the DON transformation assay basically as described in Example 3, but at pH values ranging from pH 2 to pH 10, the pH optima for DON degradation of Akr I-III (SEQ ID NOs: 1-3) were determined. Akr I and Akr II reached maximum activities at pH 6.0, Akr III at pH 6.5.
By applying the DON transformation assay basically as described in Example 3, but at different temperatures ranging from 14.9° C. to 55.7° C., the temperature optima for the DON degradation activities of Akr I-III were determined. Akr I maximum activity was shown at approximately 35° C., Akr II at approximately 31° C., and Akr III at temperatures from approximately 28° C. to 33° C. (see FIG. 4). […] For Akr I even at temperatures below 20° C.

[2] = Storage stability at different pH values, residual DON transformation activity; type: biochemical; settings: for Relative DON-transformation activity: storage at 30° C.
Procedure: as §1
The storage stability of Akr I-III at different pH values was tested by incubating 1 μM enzyme in TS buffer solutions with a pH of 3.0-10.0 for 4 h at 30° C. in standard 1.5 ml Eppendorf tubes. Every hour, a DON transformation assay was conducted as described in Example 3. The starting activity at time 0 min was set to 100% and the relative residual activities were determined throughout the incubation. For the DON transformation assays, 80 μl of the storage solution were added to an assay reaction with a final volume of 400 μl, which corresponds to a 1:5 dilution of the storage solution. Akr I retained more than 93% activity during 4 hours at 30° C. from pH 4.0-10.0. Akr II retained 30% to 93% activity during 4 hours at 30° C. from pH […] retained 27% to 85% activity during 4 hours at 30° C. from pH 4.0-9.0. Akr I-III retained more than 40% of their activity for 4 hours at 30° C. from pH 4.0 to pH 8.0.

[3] = pH 3.0, 0 h (starting activity set to 100%)
[4] = pH 4.0, 0 h (starting activity set to 100%)
[5] = pH 5.0, 0 h (starting activity set to 100%)
[6] = pH 6.0, 0 h (starting activity set to 100%)
[7] = pH 7.0.0, 0 h (starting activity set to 100%)
[8] = pH 8.0, 0 h (starting activity set to 100%)
[9] = pH 9.0.0, 0 h (starting activity set to 100%)
[10] = pH 10.0, 0 h (starting activity set to 100%)

B1: Akr I: artificial amino acid sequence, variant of a wild type aldo-keto reductase (protein)
chain: MRTTEISQGLKVSNLCIGAGPLGGMPTAFGYDVSEERGIATVQAVFDSPINFMDTSSEYGDSEVRIGKVIREGRMPKGFVIATKADAEGDGTARRGDFSAKQVRASFELSLERLGLTHIDVYFLHDPEKFPFEHVMARGGAMEELLRLKDEGLVGLVGVAGGDVVEMARYVDTGNLDILLNYGRYTLLDRSADSLIDKASDAGMAFLNAGPYASGLLAAPRGGSAWYQYAPPNADALQAVDQLHELCESFDVSLRSVALQFSMRDPRITSTVVGLSRPERVRALLDDAAAEIPAELWDQLPAPLNLPWNSLA
modifications: ArkI
- temperature of maximum DON degradation activity (temperature optimum) [1]: approximately 35 °C
- DON degradation ([1]; 14.9° C., after 20 min of incubation): complete DON degradation
- pH of maximum DON degradation activity (pH optimum) [1]: 6.0
- DON degradation ([1]; pH 4.0, after 30 min): complete degradation
- retained activity ([2]; during 4 hours at 30° C. from pH 4.0-10.0): more than 93%
- Relative DON-transformation activity [2, 3]: 100.0%
- Relative DON-transformation activity ([2]; pH 3.0, 1 h): 0.0%
- Relative DON-transformation activity ([2]; pH 3.0, 2 h): 0.0%
- Relative DON-transformation activity ([2]; pH 3.0, 3 h): 0.0%
- Relative DON-transformation activity ([2]; pH 3.0, 4 h): 0.0%
- Relative DON-transformation activity [2, 4]: 100.0%
- Relative DON-transformation activity ([2]; pH 4.0, 1 h): 100.6%
- Relative DON-transformation activity ([2]; pH 4.0, 2 h): 102.8%
- Relative DON-transformation activity ([2]; pH 4.0, 3 h): 101.5%
- Relative DON-transformation activity ([2]; pH 4.0, 4 h): 93.8%
- Relative DON-transformation activity [2, 5]: 100.0%
- Relative DON-transformation activity ([2]; pH 5.0, 1 h): 101.0%
- Relative DON-transformation activity ([2]; pH 5.0, 2 h): 101.6%
- Relative DON-transformation activity ([2]; pH 5.0, 3 h): 100.8%
- Relative DON-transformation activity ([2]; pH 5.0, 4 h): 97.9%
- Relative DON-transformation activity [2, 6]: 100.0%
- Relative DON-transformation activity ([2]; pH 6.0, 1 h): 100.6%
- Relative DON-transformation activity ([2]; pH 6.0, 2 h): 101.9%
- Relative DON-transformation activity ([2]; pH 6.0, 3 h): 101.1%
- Relative DON-transformation activity ([2]; pH 6.0, 4 h): 100.7%
- Relative DON-transformation activity [2, 7]: 100.0%
- Relative DON-transformation activity ([2]; pH 7.0.0, 1 h): 99.6%
- Relative DON-transformation activity ([2]; pH 7.0.0, 2 h): 101.4%
- Relative DON-transformation activity ([2]; pH 7.0.0, 3 h): 99.7%
- Relative DON-transformation activity ([2]; pH 7.0.0, 4 h): 96.1%
- Relative DON-transformation activity [2, 8]: 100.0%
- Relative DON-transformation activity ([2]; pH 8.0, 1 h): 101.5%
- Relative DON-transformation activity ([2]; pH 8.0, 2 h): 102.4%
- Relative DON-transformation activity ([2]; pH 8.0, 3 h): 101.1%
- Relative DON-transformation activity ([2]; pH 8.0, 4 h): 101.2%
- Relative DON-transformation activity [2, 9]: 100.0%
- Relative DON-transformation activity ([2]; pH 9.0.0, 1 h): 100.9%
- Relative DON-transformation activity ([2]; pH 9.0.0, 2 h): 101.0%
- Relative DON-transformation activity ([2]; pH 9.0.0, 3 h): 100.8%
- Relative DON-transformation activity ([2]; pH 9.0.0, 4 h): 96.6%
- Relative DON-transformation activity [2, 10]: 100.0%
- Relative DON-transformation activity ([2]; pH 10.0, 1 h): 100.5%
- Relative DON-transformation activity ([2]; pH 10.0, 2 h): 101.4%
- Relative DON-transformation activity ([2]; pH 10.0, 3 h): 99.8%
- Relative DON-transformation activity ([2]; pH 10.0, 4 h): 96.0%

B2: Akr II: artificial amino acid sequence, variant of a wild type aldo-keto reductase (protein)
chain: MRTTEIAQGLKVSNLCIGAGPLGGMPTAFGYDVSEERGIATVQAVFDSPINFMDTSSEYGGSEARIGKVIREGLMPKGFVISSKADAEGEGVGRRGDFSAKQVRASFELSLERLGLTHLDVYFLHDPEKFPFEQVMARGGAMEELLRLKDEGLVGLVGVAGGDVLEMARYVDTGSLDILLNYGRYTLLDRSADSLITKVSDAGMAFLNAGPYASGLLAAPRGGSAWYQYAPPDATALQAVDQLHELCESFDVSLRSVALQFSMRDPRITSTVVGLSRPERVRALLDDEAAEIPAELWEQLPAPLNGDIVLPG
modifications: ArkII
- temperature of maximum DON degradation activity (temperature optimum) [1]: approximately 31 °C
- pH of maximum DON degradation activity (pH optimum) [1]: 6.0
- Relative DON-transformation activity [2, 3]: 100.0%
- Relative DON-transformation activity ([2]; pH 3.0, 1 h): 34.5%
- Relative DON-transformation activity ([2]; pH 3.0, 2 h): 1.1%
- Relative DON-transformation activity ([2]; pH 3.0, 3 h): 0.0%
- Relative DON-transformation activity ([2]; pH 3.0, 4 h): 0.0%
- Relative DON-transformation activity [2, 4]: 100.0%
- Relative DON-transformation activity ([2]; pH 4.0, 1 h): 99.3%
- Relative DON-transformation activity ([2]; pH 4.0, 2 h): 96.6%
- Relative DON-transformation activity ([2]; pH 4.0, 3 h): 87.1%
- Relative DON-transformation activity ([2]; pH 4.0, 4 h): 89.0%
- Relative DON-transformation activity [2, 5]: 100.0%
- Relative DON-transformation activity ([2]; pH 5.0, 1 h): 100.1%
- Relative DON-transformation activity ([2]; pH 5.0, 2 h): 99.8%
- Relative DON-transformation activity ([2]; pH 5.0, 3 h): 99.3%
- Relative DON-transformation activity ([2]; pH 5.0, 4 h): 92.4%
- Relative DON-transformation activity [2, 6]: 100.0%
- Relative DON-transformation activity ([2]; pH 6.0, 1 h): 77.3%
- Relative DON-transformation activity ([2]; pH 6.0, 2 h): 85.1%
- Relative DON-transformation activity ([2]; pH 6.0, 3 h): 77.6%
- Relative DON-transformation activity ([2]; pH 6.0, 4 h): 61.8%
- Relative DON-transformation activity [2, 7]: 100.0%
- Relative DON-transformation activity ([2]; pH 7.0.0, 1 h): 79.6%
- Relative DON-transformation activity ([2]; pH 7.0.0, 2 h): 64.5%
- Relative DON-transformation activity ([2]; pH 7.0.0, 3 h): 56.9%
- Relative DON-transformation activity ([2]; pH 7.0.0, 4 h): 57.4%
- Relative DON-transformation activity [2, 8]: 100.0%
- Relative DON-transformation activity ([2]; pH 8.0, 1 h): 85.1%
- Relative DON-transformation activity ([2]; pH 8.0, 2 h): 68.3%
- Relative DON-transformation activity ([2]; pH 8.0, 3 h): 53.2%
- Relative DON-transformation activity ([2]; pH 8.0, 4 h): 40.9%
- Relative DON-transformation activity [2, 9]: 100.0%
- Relative DON-transformation activity ([2]; pH 9.0.0, 1 h): 76.5%
- Relative DON-transformation activity ([2]; pH 9.0.0, 2 h): 54.7%
- Relative DON-transformation activity ([2]; pH 9.0.0, 3 h): 36.1%
- Relative DON-transformation activity ([2]; pH 9.0.0, 4 h): 29.9%
- Relative DON-transformation activity [2, 10]: 100.0%
- Relative DON-transformation activity ([2]; pH 10.0, 1 h): 54.4%
- Relative DON-transformation activity ([2]; pH 10.0, 2 h): 37.7%
- Relative DON-transformation activity ([2]; pH 10.0, 3 h): 13.9%
- Relative DON-transformation activity ([2]; pH 10.0, 4 h): 7.2%
